Test [1] has as its target T1, feline IL-5 (Kingfisher Biotech; RP1152F) (feline, UniProt O77515 20-134).
T1 construct: Bought recombinant protein; also called fIL-5; fIL5
T1 sequence (looked up): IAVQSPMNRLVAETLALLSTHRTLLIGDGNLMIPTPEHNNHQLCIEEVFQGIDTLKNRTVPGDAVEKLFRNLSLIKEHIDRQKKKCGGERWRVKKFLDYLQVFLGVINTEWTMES
In words: SPR Biacore T200, IgG captured on goat anti-feline IgG-Fc CM5 chip, feline IL-5 as analyte. Here is the method: (§1) MtxA antibody and MtxB antibody had the highest affinity to feline IL-5 as determined by surface plasmon resonance (SPR) using a Biacore T200 instrument. Goat anti-feline IgG-Fc fragment specific (Jackson ImmunoResearch; 102-005-008) at 30 μg/ml in 10 mM acetate, pH 5.0 was immobilized onto CM5 sensor chip (Cytiva; 29104988) with NHS coupling at 10 μL/min for 420 seconds and then other sites blocked with ethanolamine at 10 μL/min for 420 seconds. The anti-feline IL-5 antibodies were captured at 2 μg/ml onto the anti-feline IgG CM5 chip for 60 sec at 10 μl/min. […] The kinetics of the feline IL-5 binding to the antibodies is shown below in FIG. 2. In addition, an IL-5 receptor blocking assay was completed by capturing biotinylated receptors on a Series S CAP chip and Biotin CAPture reagent (Cytiva). For this assay, a fusion protein was generated containing the extracellular domain of feline IL-5Rα (XP_011278466.1) linked to a 2X-Gly-Gly-Gly-Ser (SEQ ID NO:89) linker-linked to the human IgG1 Fc linked to the AviTag sequence (FIG. 1B, SEQ ID NO:2) and subcloned into the pcDNA3.4 mammalian expression vector. This construct was expressed in CHO-S cells and purified with protein A chromatography followed by a polishing chromatography step with SEC. The purified recombinant protein was biotinylated in vitro using the BirA biotin ligase. Antibodies were titrated in running buffer (1×PBSP+, Cytiva) and pre-incubated with 50 nM IL-5 (Kingfisher) at multiple molar ratios. Binding was assessed by injecting these samples over the captured receptor for 180 s. The Rmax was used to calculate the inhibition percent by dividing the Rmax of the pre-mixed samples by an average of the IL-5-only Rmax samples that were collected throughout the assay. The ability of each antibody to block binding of feline IL5 was measured (Table 2).

Test [2] has as its target T1, feline IL-5 (Kingfisher Biotech; …). The experiment in a line: Biacore, antibody pre-incubated with 50 nM IL-5 at 1:1, over captured biotinylated IL-5Rα-Fc-AviTag (competitor m3). The protocol:
as §1

Test [3] shares this target. In words: SPR Biacore T200, IgG captured on goat anti-feline IgG CM5 chip, feline IL-5 as analyte. From the text: (§2) MABS, 11:239-264). These post-translational modifications can be particularly problematic when they reside in the CDRs. […] DNA constructs were synthesized (GeneArt) encoding the MtxB clone with substitutions to eliminate the potential sequence liabilities. For the NG site in LCDR3, the Asn (position 106) was substituted with either a Gln or a Ser and for the Met in HCDR3 (position 115), a Len was substituted. The DNA constructs with the light chain variants were fused to the feline kappa constant domain. These DNA constructs were subcloned into the pcDNA3.4 expression vector (ThermoFisher) and expressed with the ExpiCHO system (ThermoFisher). The antibodies were purified with mAbSelect SuRe chromatography (Cytiva) and buffer exchanged into 20 mM sodium acetate, 136 mM sodium chloride, pH 5.5. The variants were tested in an SPR experiment using a Biacore T200 instrument to measure their affinity to feline IL-5 (Kingfisher Biotech; RP1152F). Goat anti-feline IgG was immobilized onto a Series S CM5 sensor chip (Cytiva) and the original MtxB clone and the variants containing the amino acid substitutions were captured on the chip at 5 μg/ml.
DNA constructs (GeneArt) were generated for the two heavy chain variants with the feline IgG1a constant domain along with the three light chain variants with the feline kappa constant domain were all subcloned into pcDNA 3.4 (ThermnoFisher Scientific). Each combination of the heavy and light chain variants was transfected into ExpiCHO cells to generate conditioned medium. The feline IgGs were purified using MabSelect SuRe chromatography and buffer exchanged into 20 mM sodium acetate, 136 mM sodium chloride, pH 5.5. The binding affinities of the different feline IgGs to feline IL-5 was determined using the same SPR method described in the removing potential sequence liabilities in LCDR3 and HCDR3 section and are shown below in Table 7.

For test [4] the target is unchanged. Described as above.
Source text: as §2, with “Asparagine deamidation for asparagine residues and oxidation at methionine residues can negatively impact the potency and the stability of an antibody (Xu et al., 2019. MABS,” for “MABS,”
This is another data set of the same source.

Test [5] has the same target. In words: high-throughput SPR (Carterra LSA), antibody coupled to HC-30M chip, feline IL-5 as analyte. The protocol:
The chip surface was first activated by flowing a freshly prepared 1:1:1 activation mix of 100 mM MES pH 5.5, 100 mM S-NHS, and 400 mM EDC for seven minutes. Antibodies diluted to 10 μg/mL in 10 mM sodium acetate, pH 4.25 buffer, 0.01% Tween were coupled to the chip surface for 10 min using the instrument 96 Multi Flow Channel printhead. The chip surface was quenched by flowing 1 M Ethanolamine for seven minutes, followed by two wash steps of 15 seconds each in 25 mM MES pH 5.5 buffer. Feline IL-5 (Kingfisher Biotech; RP1152F) was used at the following concentrations: 1000, 333.3, 111.1, 37.0, 12.3, 4.1, 1.4, 0.45, and 0.15 nM.

B1: MtxA antibody (felinized clone 154) (antibody, IgG1a, V domains shown)
VH: DVQLVESGGDLVKPGGSLRLTCVGSGFTFSNYAMSWVRQAPGEGLQWVATIGSGGHYTYHPDSVKGRFTISRDNAKNTLYLQMNSLQTEDTASYYCTRETDGYDGMDYWGQGTLVTVSS
VL: EIQMTQSPSSLSASVGDRVTITCRASQSISDYLYWYQQKPGKAPKLLIYYASQSISGVPSRFSGSGSGTDFTLTISSLQPEDFATYYCQNGHSFPYTFGPGTKLEIK
notes: Feline IgG1a (GenBank BAA32229.1) / feline kappa (GenBank ATI97438.1); also called Matrix clone A
In test [1], B1 registered a Kd of 0.178 nM, an off-rate constant (koff) of 1.49e-05 s⁻¹ and a kon of 87100 M⁻¹ s⁻¹. The “% blocking 1:1” value in test [2] is 92.5%. Further, in test [3], the dissociation constant (Kd) came out at 0.273 nM, the koff stood at 6.65e-05 s⁻¹ and the kon turned out to be 242000 M⁻¹ s⁻¹.

B2: MtxB antibody (felinized clone 154) (antibody, IgG1a, V domains shown)
VH: DVQLVESGGDLVKPGGSLRLTCVGSGFTFSNYAMSWVRQAPGEGLQWVATIGSGGHYTYHPDSVKGRFTISRDNAKNTLYLQMNSLQTEDTASYYCTRETDGYDGMDYWGQGTLVTVSS
VL: DIVMTQTPLSLSVTPGEPASISCRASQSISDYLYWYLQKPGQSPRRLIYYASQSISGVPDRFSGSGSGTDFTLRISRVEADDVGVYYCQNGHSFPYTFGPGTKLEIK
notes: Feline IgG1a (GenBank BAA32229.1) / feline kappa (GenBank ATI97438.1); also called MatrixB; Matrix B
In test [1], B2 showed a Kd of 5.02 nM, a koff of 0.000548 s⁻¹ and a kon of 141000 M⁻¹ s⁻¹. In addition, in test [2], the “% blocking 1:1” value was found to be 74.2%. Besides, in test [4], the affinity, expressed as Kd, was 5.9 nM; the off-rate constant (koff) stood at 0.00053 s⁻¹; the kon was determined as 90000 M⁻¹ s⁻¹.

B3: Chimeric 154 (clone 154 variable domains with feline IgG1a and feline kappa constant domains) (antibody, V domains shown)
VH: EVQLVESGGDLVKPGGSLKLSCAASGFTFSNYAMSWVRQTPDKRLEWVATIGSGGHYTYHPDSVKGRFSISRDNAKNTLSLQMSSLKSEDTAMYYCTRETDGYDGMDYWGQGTSVTVSS
VL: DIVMTQSPATLSVTPGDRVSLSCRASQSISDYLYWYQQKSHESPRLLIKYASQSISGIPARFSGSGSGSDFTLSINSVEPEDVGVYYCQNGHSFPYTFGGGTKLEIK
notes: also called 154 chimera
In test [1], B3 yielded an equilibrium dissociation constant (Kd) of 0.129 nM, a koff of 3.56e-05 s⁻¹ and an association rate constant (kon) of 276000 M⁻¹ s⁻¹. The “% blocking 1:1” value in test [2] was determined as 98.2%. In addition, in test [3], the equilibrium dissociation constant (Kd) was found to be 0.0914 nM, the dissociation rate constant (koff) is 3.38e-05 s⁻¹ and the kon stood at 369000 M⁻¹ s⁻¹.

B4: murine anti-feline IL-5 antibody clone 154 (antibody, V domains shown)
VH: EVQLVESGGDLVKPGGSLKLSCAASGFTFSNYAMSWVRQTPDKRLEWVATIGSGGHYTYHPDSVKGRFSISRDNAKNTLSLQMSSLKSEDTAMYYCTRETDGYDGMDYWGQGTSVTVSS
VL: DIVMTQSPATLSVTPGDRVSLSCRASQSISDYLYWYQQKSHESPRLLIKYASQSISGIPARFSGSGSGSDFTLSINSVEPEDVGVYYCQNGHSFPYTFGGGTKLEIK
notes: also called murine antibody 154
As to B4, the affinity in test [5], expressed as Kd, was 0.141 nM.

These data come from US20250051435A1 (INVETX, published 2025).
